These results are taken from doi:10.1101/2023.01.16.523357.

By stoichiometry N is commonly meant a count of units in the complex or per binding partner.

For assay [1], the target named is Mycobacterium smegmatis Dps2 (MsDps2), wild type (Mycobacterium smegmatis). Nature of the assay: SEC.
For assay [2], the target named is ΔN15MsDps2 (MsDps2 with the first 15 N-terminal amino acids deleted) (Mycobacterium smegmatis). Kind of assay: negative-stain electron microscopy.

“Mycobacterium smegmatis Dps2 (MsDps2), wild type (natural protein)” displayed a stoichiometry N in assay [1] of 12.

With “ΔN15MsDps2 (MsDps2 with the first 15 N-terminal amino acids deleted) (domain or fragment)”, in assay [2], the stoichiometry N was 12.
